Results taken from the RNAGym collection of RNA variant scans (doi:10.1073/pnas.2313332121).
This sample holds only a part of the variants without activity.

B1: TPR 5TU (parent)
chain: GGAUCUUCUCGAUCUAACAAAAAAGACAAAUCUGCCACAAAGCUUGAGAGCAUCUUCGGAUGCAGAGGCGGCAGCCUUCGGUGGCGCGAUAGCGCCAACGUUCUCAACUAUGACACGCAAAACGCGUGCUCCGUUGAAUGGAGUUUAUCAUG

Variants of: B1
Assay: polymerase ribozyme fitness, log enrichment relative to wild type (log ratio); higher = more active; in vitro selection for triplet polymerase activity
Procedure, shortened: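 Mutant libraries were PCR-built and transcribed for each subunit of a heterodimeric triplet polymerase ribozyme and selected for one round in triplicate at −7 °C, frozen, before gel excision of extended constructs and streptavidin-bead capture. Input and output libraries were Illumina-sequenced, keeping genotypes with ≥10 input reads and ≥1 read per output. Fitness is a logarithmic ratio of genotype to wild-type enrichment, in base 2, using inverse-variance-weighted replicate averages.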

Variant	polymerase ribozyme fitness (log ratio)
C75U G83U	-3.08
C75U G83A	-0.0803
C79G C87G C114G	≤ -4.2
C75U A97G C131U U135G	-3.18
C79A U144A A147C	≤ -4.2
C75U A113C	-3.87
C75U G133U	-3.54
G74U A107G	≤ -4.2
C76U C93G	-2.8
C75G G81U C95A G152U	≤ -4.2
C75U G141A	-0.767
A73U G141A	-2.24
C76A C87U G140C	≤ -4.2
A73U G80A U134C	-1.91
U78G C87A	≤ -4.2
C75U G83A A98C U134A U135A	-3.58
C76A U82C U90C G94C C116U G143A	≤ -4.2
G74A C96G	-2.97
U77C G92C U139C A150U	≤ -4.2
C76U U101G G124A	-0.411
C76G U144A	≤ -4.2

Variant	polymerase ribozyme fitness (log ratio)
C75A C79G C93A	-4.11
G74A C103G	≤ -4.2
C76A A91G A120G	-3.67
G74A G92C C149A	≤ -4.2
C79G C87U U144G	-4.04
C75G C87G C93U C103G	≤ -4.2
U78G U148C	-4.15
A73U G83U G84U A97C G100U C105A	≤ -4.2
C76A G92C A98U A142U	-2.32
U77A C96G G141U	≤ -4.2
C76A G141C	-2.39
C76U G88A A91C	≤ -4.2
C75G C93A	-4.14
C75U C85G C103A A107U U146G A147U A150G	≤ -4.2
U78G C87G G92U A97C	≤ -4.2
C76A C87G	-4.07
U77A G84A C85U C129A	≤ -4.2
C75A C116U	≤ -4.2
C76G G83U U90A G128U U135G	≤ -4.2
C76U C95U C96U G124U	-1.17
C75U A110C U146G	≤ -4.2

Variant	polymerase ribozyme fitness (log ratio)
U78A C103G U134A	≤ -4.2
G74A G86C G100C C103G C105A U151A	≤ -4.2
C75U G94A A142C	-2.13
U77C U111A C131A	≤ -4.2
C75U G92A	-2.99
C79A C93A	-4.12
U77A G84A C85U	≤ -4.2
C79A G88A G133U G140A	≤ -4.2
C76U G94U A115C C125U A147U	≤ -4.2
G74C C93U G143U	≤ -4.2
U77G C87U G88A G140C A142G	≤ -4.2
C76A A119U	-0.979
C76A A113C G141C U151A	≤ -4.2
U77A C132U	≤ -4.2
C76A A91G C114U	-3.98
C76U C85G A121U U148C	-2.83
A73U C116G	-2.81
C75G G92A C105G C114G U146C	≤ -4.2
C76A C85U U144C	-0.235
A73U G81A C118G A120U U135A	-3.75
C76U G86C	-0.716

Variant	polymerase ribozyme fitness (log ratio)
C79G C96U	-3.8
C75U C87U	0.0996
C75U A89G	-0.933
U78G C79A C108U	≤ -4.2
C75U C79G	-4.07
U78A G83U	≤ -4.2
U77C G143U	-4.09
C79G C85A C114U	≤ -4.2
C79G G81U C95U A107U C108U	≤ -4.2
G74A G84C C95U A137C	≤ -4.2
U78G G117C	≤ -4.2
C75U C85U U135G U146A	-3.82
C79A C93U A119G G133C	≤ -4.2
U78A C93A G94U G140A G143A	≤ -4.2
U78G G126U	≤ -4.2
A73U C93U A120G	-2.61
C76U C103A G141C	-4.16
C75U A113U G124U U144C	≤ -4.2
C76A C96U	-0.773
C76U U102G	-2.89
C76A U127A	-3.75
